Assay results taken from the supplement of paper PMC9112550, “Optimization of the antimicrobial peptide Bac7 by deep mutational scanning” (BMC Biology, 2022).

test system: Escherichia coli TOP10; assay: shrunken log2 fold change of peptide-encoding DNA abundance (4.5 h post-induction vs induction); higher = less antimicrobial activity (less host growth inhibition); details: time post-induction: 4.5 h; library: site-saturation at positions 5, 18, 19, 20
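Also: peptides expressed intracellularly from a pBAD plasmid library in pooled LB shake-flask culture, induced with 0.3% L-arabinose, DNA abundance read by NGS, three biological replicates, DESeq2 with apeglm shrinkage.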

Row | Sequence | shrunken log2 fold change
1 | RRIRHRPPRLPRPRPRPAWDPRP | -0.0216
2 | RRIRHRPPRLPRPRPRPAWRPRP | 0.654
3 | RRIRHRPPRLPRPRPRPAWYPRP | -0.0318
4 | RRIRHRPPRLPRPRPRPCCYPRP | -0.496
5 | RRIRHRPPRLPRPRPRPCFPPRP | -0.517
6 | RRIRHRPPRLPRPRPRPCHTPRP | -0.0375
7 | RRIRHRPPRLPRPRPRPCICPRP | -0.347
8 | RRIRHRPPRLPRPRPRPCIWPRP | -0.121
9 | RRIRHRPPRLPRPRPRPCKCPRP | -0.174
10 | RRIRHRPPRLPRPRPRPCKDPRP | -0.332
11 | RRIRHRPPRLPRPRPRPCLSPRP | 0.0289
12 | RRIRHRPPRLPRPRPRPCMIPRP | -0.277
13 | RRIRHRPPRLPRPRPRPCNEPRP | -0.00194
14 | RRIRHRPPRLPRPRPRPCNTPRP | -0.416
15 | RRIRHRPPRLPRPRPRPCPCPRP | -0.114
16 | RRIRHRPPRLPRPRPRPCQLPRP | -0.0748
17 | RRIRHRPPRLPRPRPRPCSFPRP | -0.309
18 | RRIRHRPPRLPRPRPRPCSLPRP | -0.115
19 | RRIRHRPPRLPRPRPRPCTIPRP | -0.0935
20 | RRIRHRPPRLPRPRPRPCWIPRP | -0.00991
21 | RRIRHRPPRLPRPRPRPDDPPRP | -0.0026
22 | RRIRHRPPRLPRPRPRPDEKPRP | -0.00141
23 | RRIRHRPPRLPRPRPRPDELPRP | -0.000777
24 | RRIRHRPPRLPRPRPRPDEYPRP | -0.00149
25 | RRIRHRPPRLPRPRPRPDGFPRP | -0.015

Row | Sequence | shrunken log2 fold change
26 | RRIRHRPPRLPRPRPRPDHGPRP | -0.115
27 | RRIRHRPPRLPRPRPRPDHMPRP | 0.00372
28 | RRIRHRPPRLPRPRPRPDIPPRP | -0.193
29 | RRIRHRPPRLPRPRPRPDLRPRP | 0.0039
30 | RRIRHRPPRLPRPRPRPDLVPRP | -0.104
31 | RRIRHRPPRLPRPRPRPDPMPRP | 0.0718
32 | RRIRHRPPRLPRPRPRPDPWPRP | 0.0282
33 | RRIRHRPPRLPRPRPRPDQHPRP | -0.00237
34 | RRIRHRPPRLPRPRPRPDRWPRP | 0.255
35 | RRIRHRPPRLPRPRPRPDTMPRP | 0.031
36 | RRIRHRPPRLPRPRPRPDTVPRP | 0.028
37 | RRIRHRPPRLPRPRPRPDVFPRP | -0.37
38 | RRIRHRPPRLPRPRPRPDWCPRP | -0.00101
39 | RRIRHRPPRLPRPRPRPDWNPRP | -0.207
40 | RRIRHRPPRLPRPRPRPEAWPRP | 0.0548
41 | RRIRHRPPRLPRPRPRPEDSPRP | 0.0648
42 | RRIRHRPPRLPRPRPRPEDVPRP | -0.00992
43 | RRIRHRPPRLPRPRPRPEFYPRP | -0.0662
44 | RRIRHRPPRLPRPRPRPEGVPRP | 0.0659
45 | RRIRHRPPRLPRPRPRPEICPRP | -0.00961
46 | RRIRHRPPRLPRPRPRPEILPRP | -0.00654
47 | RRIRHRPPRLPRPRPRPELWPRP | 0.376
48 | RRIRHRPPRLPRPRPRPEMPPRP | -0.177
49 | RRIRHRPPRLPRPRPRPEPRPRP | 0.137
50 | RRIRHRPPRLPRPRPRPEQHPRP | 1.73

Row | Sequence | shrunken log2 fold change
51 | RRIRHRPPRLPRPRPRPERMPRP | -0.0151
52 | RRIRHRPPRLPRPRPRPERPPRP | -0.0369
53 | RRIRHRPPRLPRPRPRPERRPRP | 0.0748
54 | RRIRHRPPRLPRPRPRPERYPRP | -0.0389
55 | RRIRHRPPRLPRPRPRPEWFPRP | -0.0468
56 | RRIRHRPPRLPRPRPRPEWHPRP | 0.0223
57 | RRIRHRPPRLPRPRPRPEWVPRP | -0.086
58 | RRIRHRPPRLPRPRPRPEYDPRP | -0.0789
59 | RRIRHRPPRLPRPRPRPFAQPRP | -0.163
60 | RRIRHRPPRLPRPRPRPFCIPRP | -0.538
61 | RRIRHRPPRLPRPRPRPFDEPRP | -0.173
62 | RRIRHRPPRLPRPRPRPFDNPRP | -0.0137
63 | RRIRHRPPRLPRPRPRPFEQPRP | -0.283
64 | RRIRHRPPRLPRPRPRPFESPRP | -0.00822
65 | RRIRHRPPRLPRPRPRPFFEPRP | -0.0877
66 | RRIRHRPPRLPRPRPRPFGSPRP | -0.0134
67 | RRIRHRPPRLPRPRPRPFHYPRP | -0.0791
68 | RRIRHRPPRLPRPRPRPFICPRP | 0.00486
69 | RRIRHRPPRLPRPRPRPFILPRP | -0.675
70 | RRIRHRPPRLPRPRPRPFITPRP | -0.799
71 | RRIRHRPPRLPRPRPRPFKFPRP | -0.376
72 | RRIRHRPPRLPRPRPRPFLVPRP | -0.106
73 | RRIRHRPPRLPRPRPRPFMRPRP | -0.42
74 | RRIRHRPPRLPRPRPRPFNEPRP | -0.64
75 | RRIRHRPPRLPRPRPRPFNRPRP | 0.00911
